Test results: patent publication US20240270866A1 (Alector, published 2024)
Where a chain is given by its changes, count along the chain named.

T1: Mouse SIRPA D1 Fc (mouse, UniProt P97797 32-150, limits assumed)
T1 sequence: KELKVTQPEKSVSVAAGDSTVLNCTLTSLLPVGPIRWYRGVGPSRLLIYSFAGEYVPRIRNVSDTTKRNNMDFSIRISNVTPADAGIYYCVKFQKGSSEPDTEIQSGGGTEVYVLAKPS

T2: mouse SIRPA overexpressed on CHO cells (mouse, UniProt P97797 32-513)
T2 construct: also called CHO-muSIRPA
T2 sequence: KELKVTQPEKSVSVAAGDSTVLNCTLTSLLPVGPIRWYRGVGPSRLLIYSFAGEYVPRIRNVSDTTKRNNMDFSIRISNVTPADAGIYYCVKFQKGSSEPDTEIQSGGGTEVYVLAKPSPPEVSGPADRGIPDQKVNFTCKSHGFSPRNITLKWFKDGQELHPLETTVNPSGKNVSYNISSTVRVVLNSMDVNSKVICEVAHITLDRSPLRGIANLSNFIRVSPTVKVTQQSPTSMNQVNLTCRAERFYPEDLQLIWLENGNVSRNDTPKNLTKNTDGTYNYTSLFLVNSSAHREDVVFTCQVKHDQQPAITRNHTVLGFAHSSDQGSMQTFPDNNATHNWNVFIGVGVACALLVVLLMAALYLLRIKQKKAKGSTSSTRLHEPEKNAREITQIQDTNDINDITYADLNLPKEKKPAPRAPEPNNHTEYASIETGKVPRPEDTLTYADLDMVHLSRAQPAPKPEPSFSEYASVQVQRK

B1: SA-12 (antibody, V domains shown)
VH: QVQLVQSGAEVKKPGASVKVSCKASGYTFTSYYIHWVRQAPGQGLEWMGIINPSGGSTSYAQKFQGRVTMTRDTSTSTVYMELSSLRSEDTAVYYCARAPGSWFYWGQGTLVTVSS
VL: EIVLTQSPATLSLSPGERATLSCRASQSVSSYLAWYQQKPGQAPRLLIYDASNRATGIPARFSGSGSGTDFTLTISSLEPEDFAVYYCQQRTNFPITFGGGTKVEIK
notes: IgG
B2: SA-14 (antibody, V domains shown)
VH: EVQLVESGGGLVKPGGSLRLSCAASGFTFSSYSMNWVRQAPGKGLEWVSSISSSSSYIYYADSVKGRFTISRDNAKNSLYLQMNSLRAEDTAVYYCARDGSMYYGDPMDVWGQGTTVTVSS
VL: DIQLTQSPSSLSASVGDRVTITCQASQDISNFLNWYQQKPGKAPKLLIYDASNLETGVPSRFSGSGSGTDFTFTISSLQPEDIAKYYCQQFINFPLTFGGGTKVEIK
notes: IgG
B3: SA-16 (antibody, V domains shown)
VH: QVQLQQWGAGLLKPSETLSLTCAVYGGSFSGYYWSWIRQPPGKGLEWIGEIDHSGSTNYNPSLKSRVTISVDTSKNQFSLKLSSVTAADTAVYYCARDLGPPGPHLDVWGQGTMVTVSS
VL: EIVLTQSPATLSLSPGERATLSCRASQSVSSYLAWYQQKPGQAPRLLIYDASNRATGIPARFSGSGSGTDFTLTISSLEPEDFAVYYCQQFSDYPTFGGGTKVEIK
notes: IgG
B4: SA-19 (antibody, V domains shown)
VH: QVQLVESGGGVVQPGRSLRLSCAASGFTFSSYGMHWVRQAPGKGLEWVAVISYDGSNKYYADSVKGRFTISRDNSKNTLYLQMNSLRAEDTAVYYCARDLTKYTLGFAFDIWGQGTMVTVSS
VL: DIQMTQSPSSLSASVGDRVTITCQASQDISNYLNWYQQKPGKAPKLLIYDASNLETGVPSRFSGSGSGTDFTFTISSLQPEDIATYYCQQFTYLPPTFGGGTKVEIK
notes: IgG; also called SA-19 (parental)
B5: SA-22 (antibody, V domains shown)
VH: EVQLVESGGGLVKPGGSLRLSCAASGFTFSSYSMNWVRQAPGKGLEWVSSISSSSSYIYYADSVKGRFTISRDNAKNSLYLQMNSLRAEDTAVYYCARDPTDSSSYYDVWGQGTLVTVSS
VL: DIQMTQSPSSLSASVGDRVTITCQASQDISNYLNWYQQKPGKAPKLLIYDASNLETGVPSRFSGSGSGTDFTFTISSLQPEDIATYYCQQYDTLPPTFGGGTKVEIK
notes: IgG
B6: SA-23 (antibody, V domains shown)
VH: QVQLVQSGAEVKKPGASVKVSCKASGYTFTSYGISWVRQAPGQGLEWMGWISTYNGNTNYAQKLQGRVTMTTDTSTSTAYMELRSLRSDDTAVYYCARDQGTGTTVDLDLWGRGTLVTVSS
VL: not shown
notes: IgG
B7: SA-25 (antibody, V domains shown)
VH: QVQLVQSGAEVKKPGSSVKVSCKASGGTFSSYAISWVRQAPGQGLEWMGSIIPIFGTANYAQKFQGRVTITADESTSTAYMELSSLRSEDTAVYYCARDRGYPRYSYLDLWGRGTLVTVSS
VL: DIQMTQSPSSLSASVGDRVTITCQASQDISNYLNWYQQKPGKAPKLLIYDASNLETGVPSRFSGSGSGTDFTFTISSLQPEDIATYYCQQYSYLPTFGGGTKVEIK
notes: IgG
B8: SA-26 (antibody, V domains shown)
VH: QVQLQQWGAGLLKPSETLSLTCAVYGGSFSGYYWSWIRQPPGKGLEWIGEIDHSGSTNYNPSLKSRVTISVDTSKNQFSLKLSSVTAADTAVYYCARDRLDGSLGIYGMDVWGQGTTVTVSS
VL: DIQMTQSPSSLSASVGDRVTITCRASQSINSYLNWYQQKPGKAPKLLIYAASSLQSGVPSRFSGSGSGTDFTLTISSLQPEDFATYYCQQSPSDPWTFGGGTKVEIK
notes: IgG
B9: SA-27 (antibody, V domains shown)
VH: QLQLQESGPGLVKPSETLSLTCTVSGGSISSSSYYWGWIRQPPGKGLEWIGSIYYSGSTYYNPSLKSRVTISVDTSKNQFSLKLSSVTAADTAVYYCARDSDKVALDLWGRGTLVTVSS
VL: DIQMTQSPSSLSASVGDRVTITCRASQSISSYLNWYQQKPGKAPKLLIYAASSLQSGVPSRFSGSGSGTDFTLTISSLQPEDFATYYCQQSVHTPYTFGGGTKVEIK
notes: IgG
B10: SA-28 (antibody, V domains shown)
VH: QVQLQESGPGLVKPSQTLSLTCTVSGGSISSGGYYWSWIRQHPGKGLEWIGNIYYSGSTYYNPSLKSRVTISVDTSKNQFSLKLSSVTAADTAVYYCARDSDTSWGGFDYWGQGTLVTVSS
VL: EIVLTQSPGTLSLSPGERATLSCRASQSVRSSYLAWYQQKPGQAPRLLIYGASSRATGIPDRFSGSGSGTDFTLTISRLEPEDFAVYYCQQAGVSPYTFGGGTKVEIK
notes: IgG
B11: SA-29 (antibody, V domains shown)
VH: B10 VH
VL: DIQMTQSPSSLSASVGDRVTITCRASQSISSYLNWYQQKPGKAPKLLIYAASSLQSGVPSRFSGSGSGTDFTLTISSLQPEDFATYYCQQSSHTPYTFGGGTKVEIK
notes: IgG
B12: SA-31 (antibody, V domains shown)
VH: B7 VH
VL: B10 VL with R30S, A92F, G93F, V94S, S95Y, Y97P
notes: IgG
B13: SA-32 (antibody, V domains shown)
VH: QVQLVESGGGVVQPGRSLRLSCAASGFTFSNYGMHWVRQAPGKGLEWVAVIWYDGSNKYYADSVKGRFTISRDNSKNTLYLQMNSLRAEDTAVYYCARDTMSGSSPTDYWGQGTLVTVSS
VL: EIVMTQSPATLSVSPGERATLSCRASQSVGSNLAWYQQKPGQAPRLLIYGASTRATGIPARFSGSGSGTEFTLTISSLQSEDFAVYYCQQLNVFPWTFGGGTKVEIK
notes: IgG
B14: SA-34 (antibody, V domains shown)
VH: QVQLVQSGAEVKKPGASVKVSCKASGYTFTNYGISWVRQAPGQGLEWMGWISAYNGNTNYAQKLQGRVTMTTDTSTSTAYMELRSLRSDDTAVYYCARDVYSSYSYWGQGTLVTVSS
VL: DIQLTQSPSTLSASVGDRVTITCRASQSISSWLAWYQQKPGKAPKLLIYDASSLESGVPSRFSGSGSGTEFTLTISSLQPDDFATYYCQQYELLPPTFGGGTKVEIK
notes: IgG
B15: SA-35 (antibody, V domains shown)
VH: QVQLVQSGAEVKKPGASVKVSCKASGYTFTSYYMHWVRQAPGQGLEWMGIINPSGGSTSYAQKFQGRVTMTRDTSTSTVYMELSSLRSEDTAVYYCAREAGYDIKGFDYWGQGTLVTVSS
VL: B14 VL with L4M, D50K, E92G, L93S, L94F, P96L
notes: IgG
B16: SA-36 (antibody, V domains shown)
VH: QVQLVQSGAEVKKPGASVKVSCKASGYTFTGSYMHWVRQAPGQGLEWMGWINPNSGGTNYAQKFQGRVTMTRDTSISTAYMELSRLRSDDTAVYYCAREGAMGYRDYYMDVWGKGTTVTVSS
VL: B1 VL with L21I, S22T, R24Q, S28D, V29I, N93H, F94Y, I96W
notes: IgG

Molecular target: T3, Human SIRPA D1 Fc (human, UniProt P78324 32-137)
T3 construct: not shown: human IgG1 Fc
Assay: ForteBio IgG avid;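 further: antibody IgG captured on AHQ biosensors, then 100 nM Fc-fused SIRP antigen applied for 3 min, followed by 3 min buffer dissociation, kinetics fitted to a 1:1 model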

Binder	Kd	binding result
B1	13 nM	
B2	31 nM	
B3	4.02 nM	
B4		binds
B5	22 nM	
B6	38 nM	
B7	24.2 nM	
B8	13.8 nM	
B9	4.43 nM	
B10	6.67 nM	
B11	4.55 nM	
B12	6.47 nM	
B13	24.4 nM	
B14	26.8 nM	
B15	10.2 nM	
B16	8.67 nM	

Molecular target: T1, Mouse SIRPA D1 Fc
Assay: ForteBio IgG avid;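 further: antibody IgG captured on AHQ biosensors, then 100 nM Fc-fused SIRP antigen applied for 3 min, followed by 3 min buffer dissociation, kinetics fitted to a 1:1 model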

Binder	binding result
B1	no binding (tested: 100 nM)
B2	no binding (tested: 100 nM)
B3	no binding (tested: 100 nM)
B4	no binding (tested: 100 nM)
B5	no binding (tested: 100 nM)
B7	no binding (tested: 100 nM)
B8	no binding (tested: 100 nM)
B9	no binding (tested: 100 nM)
B10	no binding (tested: 100 nM)
B11	no binding (tested: 100 nM)
B12	no binding (tested: 100 nM)
B13	no binding (tested: 100 nM)
B14	no binding (tested: 100 nM)
B15	no binding (tested: 100 nM)
B16	no binding (tested: 100 nM)

Molecular target: Human SIRPb D1 Fc (human, UniProt O00241 30-148, limits assumed)
Sequence (O00241 30-148 limits assumed): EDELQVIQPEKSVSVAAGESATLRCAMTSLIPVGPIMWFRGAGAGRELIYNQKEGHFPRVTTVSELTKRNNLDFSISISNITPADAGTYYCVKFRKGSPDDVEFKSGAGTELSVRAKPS
Assay: ForteBio IgG avid;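 further: antibody IgG captured on AHQ biosensors, then 100 nM Fc-fused SIRP antigen applied for 3 min, followed by 3 min buffer dissociation, kinetics fitted to a 1:1 model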

Binder	binding result
B1	no binding (tested: 100 nM)
B2	no binding (tested: 100 nM)
B3	no binding (tested: 100 nM)
B5	no binding (tested: 100 nM)
B7	no binding (tested: 100 nM)
B8	no binding (tested: 100 nM)
B9	no binding (tested: 100 nM)
B10	no binding (tested: 100 nM)
B11	no binding (tested: 100 nM)
B12	no binding (tested: 100 nM)
B13	no binding (tested: 100 nM)
B14	no binding (tested: 100 nM)
B15	no binding (tested: 100 nM)
B16	no binding (tested: 100 nM)

Molecular target: T2, mouse SIRPA overexpressed on CHO cells
Assay: flow, CHO-muSIRPA;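 on relative MFI: antibody binding measured by flow cytometry: cells stained with 1 ug/ml test antibody for 1 h on ice, detected with PE-labelled secondary antibody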
Protocol: (§1) Initial characterization of anti-SIRPA antibodies of the present disclosure involved determining their ability to bind cell lines overexpressing human or mouse SIRPA. Cells were harvested, plated at 10⁶/ml in a 96 well plate, washed, and incubated in 100 ul PBS containing 1 ug/ml Mab for 1 hour in ice. Cells were then washed twice and incubated in 100 ul PBS containing 5 ug/ml PE-conjugated secondary antibody for 30 minutes in ice. Cells were washed twice in cold PBS and acquired on a BD FACS Canto. Data analysis and calculation of mean fluorescence intensity (MFI) values or % positive cells was performed with FlowJo® (TreeStar) software version 10.0.7.

Binder	relative MFI
B1	0.548 fold over background
B2	0.732 fold over background
B3	0.539 fold over background
B4	0.601 fold over background
B5	0.619 fold over background
B6	0.533 fold over background
B7	0.586 fold over background
B8	0.574 fold over background
B9	0.619 fold over background
B10	0.467 fold over background
B11	0.479 fold over background
B12	0.509 fold over background
B13	0.685 fold over background
B14	0.613 fold over background
B15	0.491 fold over background
B16	0.574 fold over background

Molecular target: T2, mouse SIRPA overexpressed on CHO cells
Assay: flow, CHO-muSIRPA;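 on relative MFI: antibody binding measured by flow cytometry: cells stained with 1 ug/ml test antibody for 1 h on ice, detected with PE-labelled secondary antibody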
Remark: another data set of the same source

Binder	binding result
B1	no binding (tested: 1 ug/ml)
B2	no binding (tested: 1 ug/ml)
B3	no binding (tested: 1 ug/ml)
B4	no binding (tested: 1 ug/ml)
B5	no binding (tested: 1 ug/ml)
B7	no binding (tested: 1 ug/ml)
B8	no binding (tested: 1 ug/ml)
B9	no binding (tested: 1 ug/ml)
B10	no binding (tested: 1 ug/ml)
B11	no binding (tested: 1 ug/ml)
B12	no binding (tested: 1 ug/ml)
B13	no binding (tested: 1 ug/ml)
B14	no binding (tested: 1 ug/ml)
B15	no binding (tested: 1 ug/ml)
B16	no binding (tested: 1 ug/ml)

Molecular target: T4, human SIRPA overexpressed on CHO cells (human, UniProt P78324 31-504)
T4 construct: also called CHO-huSIRPA
Assay: flow, CHO-huSIRPA;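 further: Anti-SIRPA antibodies applied at 1 µg/mL for 1 h on ice, binding read by flow cytometry using a PE-labelled secondary antibody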
Protocol: as §1

Binder	relative MFI
B1	52 fold over background
B2	24.4 fold over background
B3	0.592 fold over background
B5	1.39 fold over background
B6	21.1 fold over background
B7	8.27 fold over background
B8	1.1 fold over background
B9	0.722 fold over background
B10	0.775 fold over background
B11	0.595 fold over background
B12	12.4 fold over background
B13	35.4 fold over background
B14	0.806 fold over background
B15	48.2 fold over background
B16	27.9 fold over background
